Consider 116 sequences from the supplement of paper PMC10724198.

± gives the standard deviation of the averaged measurements.
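Note: PSI is a weighted mean of sequencing reads over stability bins, variants kept only with over 10 reads, mCherry proximal and sfGFP distal, peptide attached via GGGS linker.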

The data set deals with Saccharomyces cerevisiae. The experiment in a line: protein stability index of tFT-peptide fusion (C-terminal peptide) (PSI (0-1 scale)); higher = more stable (slower turnover). The settings on record: genetic background: wild type; temperature: 30 C.
Take VTLTPPVLYTSL: the protein stability index was 0.647 ± 0.059.

In the case of VTVDLGCRATGE, the protein stability index worked out at 0.675 ± 0.067. Next, VTVGGAWSGTRG: 0.647 ± 0.06; VTWNTLENMNLV: 0.673 ± 0.032; VTYFIPVTNRAS: 0.605 ± 0.0074. VVAERFADAKGS registered a protein stability index of 0.653 ± 0.025. For VVAVGHWFDGGV the value was 0.623 ± 0.045; for VVCFLVHGWGGW, 0.638 ± 0.048. Next, VVCLGGGVLPRV: 0.654 ± 0.081. In the case of VVCRDGLSSCVG, the protein stability index is 0.623 ± 0.019. Regarding VVCSSGFVSDPG, the protein stability index was 0.5582 ± 0.0049.

VVDGGEHVCYRI returned a protein stability index of 0.654 ± 0.082.

Turning to VVFSPQFRLPVP, the protein stability index is 0.66 ± 0.024. For VVGFVRPGMQGL the value was 0.673 ± 0.052; for VVGGVGLGLWKV, 0.659 ± 0.097. In the case of VVGRTNRYAVPH, the protein stability index is 0.662 ± 0.061. Regarding VVILGSMHLCSV, the protein stability index was 0.561 ± 0.016.

VVLFPILKLLSN: the protein stability index stood at 0.53 ± 0.015. VVLWLASGVGGG showed a protein stability index of 0.75 ± 0.061. For VVMLSLVALGRV, the protein stability index worked out at 0.523 ± 0.026. For VVQEIGGSVRRE, the protein stability index was 0.6814 ± 0.0035. For VVRALSTQVCLP the value was 0.645 ± 0.098. Next, VVRFEGYVLGWG: 0.647 ± 0.072; VVRKVALVALPL: 0.574 ± 0.05. Sequence VVRLKRLPPCSS had a protein stability index of 0.699 ± 0.077. Take VVRSDFCFFFGI: the protein stability index is 0.754 ± 0.065.

With VVRWFGGGCVRG, the protein stability index was 0.682 ± 0.033. VVSGDAPVARRA registered a protein stability index of 0.6781 ± 0.0056.

VVSGSHSVLYGS returned a protein stability index of 0.71 ± 0.028. Next, VVSKMGFGAALV: 0.654 ± 0.085. VVSRLCCTRIRQ registered a protein stability index of 0.701 ± 0.04. As for VVSSAYRLKARP, the protein stability index turned out to be 0.696 ± 0.046. For VVSSFHYTSRQC the value was 0.744 ± 0.1; for VVTRANVRRDKM, 0.672 ± 0.023; for VVVCGSSVLVLT, 0.555 ± 0.041. For VVVLVGGGWVCV the value was 0.51 ± 0.035; for VVVSGGGQGFWL, 0.757 ± 0.064. With VVWGLGAGRMVW, the protein stability index worked out at 0.656 ± 0.076. For VVWRCCGRGAEG the value was 0.6457 ± 0.0016; for VVYFARGDNVYA, 0.682 ± 0.05. For VWCGVLVRSCWV the value was 0.52 ± 0.0091; for VWCVGRVGYEGE, 0.783 ± 0.1; for VWFDPHEFIVIA, 0.59 ± 0.027.

Sequence VWFGLLTTVNID displayed a protein stability index of 0.5657 ± 0.0048.

In turn, VWGGLAVVTGWA came in with a protein stability index of 0.612 ± 0.073. Sequence VWGGLGGGVGRA showed a protein stability index of 0.668 ± 0.014. For VWGVCAVFGCAG, the protein stability index turned out to be 0.644 ± 0.12. Consider VWKEPVQYSRQL, for which the protein stability index is 0.626 ± 0.051. For VWLAGVMVGRFQ the value was 0.5575 ± 0.0039; for VWLWCDLSRGWI, 0.733 ± 0.013; for VWNLELFFTLAT, 0.6331 ± 0.001. Next, VWVVSGRGGWWG: 0.6336 ± 0.0033.

The sequence VWVWATGWGARG returned a protein stability index of 0.7369 ± 0.0038.

The sequence VYCIEFNRQWDA gave a protein stability index of 0.693 ± 0.048. Sequence VYEGLRSGPRSL gave a protein stability index of 0.718 ± 0.093.

Consider VYEIQCGSNFKG, for which the protein stability index was found to be 0.7 ± 0.052. For VYHFPDLFPLGI the value was 0.7078 ± 0.0027; for VYKLDLEEENRS, 0.654 ± 0.072; for WAAWYPGEHPVP, 0.755 ± 0.12. WAIPSSPQYKRA displayed a protein stability index of 0.676 ± 0.031. With WARVESFTSKTQ, the protein stability index was 0.6028 ± 0.0045. For WCLGLGCVWGGW the value was 0.779 ± 0.092. Next, WCRGVGSWRGRG: 0.688 ± 0.008. Next, WCVEGVWRVRGW: 0.649 ± 0.044; WDFLLQGISSPR: 0.767 ± 0.12.

WDGWPTRWGGTG: the protein stability index was found to be 0.705 ± 0.017. For WEGAGGGFGLVV, the protein stability index worked out at 0.712 ± 0.05. Next, WELPNRANDLSH: 0.769 ± 0.11.

Sequence WENKKRMIRQKL came in with a protein stability index of 0.526 ± 0.016.

Take WERGKGGLVMEG: the protein stability index amounted to 0.646 ± 0.0067. In turn, WEWLQAKCFLSQ came in with a protein stability index of 0.688 ± 0.086. WFDVVALPCLSF returned a protein stability index of 0.562 ± 0.0084. Next, WFFSNLRRDCGG: 0.735 ± 0.016; WFHPAPLCGPQS: 0.662 ± 0.063.

In turn, WFLCWGWGCGGA came in with a protein stability index of 0.673 ± 0.08. For WFRPLSMLPPGF the value was 0.701 ± 0.02. Take WGCFPGVVMGVS: the protein stability index turned out to be 0.594 ± 0.02. In the case of WGDDRIRVCVRG, the protein stability index stood at 0.611 ± 0.035. For WGFWLCSGNWST the value was 0.725 ± 0.0088. For WGGGGGGGAAGS the value was 0.679 ± 0.08; for WGGGRGLRVVGG, 0.733 ± 0.092. For WGGWGRVWVKLG the value was 0.701 ± 0.05; for WGIVGLRGSRVG, 0.618 ± 0.018. Turning to WGMVFQVFRRRN, the protein stability index is 0.582 ± 0.018. Next, WGPGGRRGVGHV: 0.727 ± 0.058. For WGQCLYRSAGSV the value was 0.715 ± 0.055; for WGRCGAVGRGGA, 0.693 ± 0.029. WGRGAVGPLLGV had a protein stability index of 0.632 ± 0.016. Take WGRLRFFDCSGF: the protein stability index amounted to 0.605 ± 0.014.

Consider WGRRGRRGSWGA, for which the protein stability index was determined as 0.683 ± 0.024.

Consider WGRRNFLPNSPR, for which the protein stability index came out at 0.67 ± 0.049. The sequence WGSLVRLFGLWR returned a protein stability index of 0.6541 ± 0.0015.

Sequence WGVWYGGAVRVG displayed a protein stability index of 0.5 ± 0.052. Consider WIPSYMRFCALT, for which the protein stability index came to 0.788 ± 0.098. WIRRWVGVEGPL came in with a protein stability index of 0.707 ± 0.079. As for WKNGYITGHRYM, the protein stability index was found to be 0.66596 ± 0.00041.

Turning to WLGSRGNGGWAE, the protein stability index turned out to be 0.696 ± 0.024.

WLPSSLPPIVHH: the protein stability index is 0.662 ± 0.018. For WMCILESWDSVD, the protein stability index was determined as 0.706 ± 0.099.

As to WPFMGLSAGCLR, the protein stability index was found to be 0.691 ± 0.028. Next, WPLKTMLFGIWV: 0.562 ± 0.028; WPSMFFSIEESW: 0.887 ± 0.042.

Sequence WPTPRVGIDLEN returned a protein stability index of 0.631 ± 0.05. In turn, WQMRNGTSRSSL had a protein stability index of 0.631 ± 0.012. WREAVMKRQGGG had a protein stability index of 0.677 ± 0.014. Next, WREGKTCTRKGG: 0.57 ± 0.047. Next, WRGQRGRIAGPR: 0.6694 ± 0.0062.

In the case of WRLGEREGWKAG, the protein stability index was 0.615 ± 0.0077. For WRSGGGGGPAGV the value was 0.6762 ± 0.0032; for WRTRRVVFPNWH, 0.666 ± 0.008; for WSFQTRSVNICI, 0.633 ± 0.021. For WSLSSHCMLMVE, the protein stability index is 0.5394 ± 0.0051. On to WSPILEHAISDL, for which the protein stability index worked out at 0.731 ± 0.017. As to WSPPRAAPRPHP, the protein stability index came out at 0.642 ± 0.045. As to WSRSEIGDGSAG, the protein stability index was found to be 0.742 ± 0.023. As for WSSGDVRRAKEW, the protein stability index stood at 0.719 ± 0.078.
